These results are taken from patent US20230140224A1 (APRILBIO, published 2023).

In the assay the target is T1, human serum albumin (human, UniProt P02768 25-609).
T1 construct: also called HSA; human albumin
Put plainly: ELISA, albumin coated on plate, Fab in solution. In general terms: ELISA stands for enzyme-linked immunosorbent assay.

T1 sequence (P02768 25-609 limits assumed): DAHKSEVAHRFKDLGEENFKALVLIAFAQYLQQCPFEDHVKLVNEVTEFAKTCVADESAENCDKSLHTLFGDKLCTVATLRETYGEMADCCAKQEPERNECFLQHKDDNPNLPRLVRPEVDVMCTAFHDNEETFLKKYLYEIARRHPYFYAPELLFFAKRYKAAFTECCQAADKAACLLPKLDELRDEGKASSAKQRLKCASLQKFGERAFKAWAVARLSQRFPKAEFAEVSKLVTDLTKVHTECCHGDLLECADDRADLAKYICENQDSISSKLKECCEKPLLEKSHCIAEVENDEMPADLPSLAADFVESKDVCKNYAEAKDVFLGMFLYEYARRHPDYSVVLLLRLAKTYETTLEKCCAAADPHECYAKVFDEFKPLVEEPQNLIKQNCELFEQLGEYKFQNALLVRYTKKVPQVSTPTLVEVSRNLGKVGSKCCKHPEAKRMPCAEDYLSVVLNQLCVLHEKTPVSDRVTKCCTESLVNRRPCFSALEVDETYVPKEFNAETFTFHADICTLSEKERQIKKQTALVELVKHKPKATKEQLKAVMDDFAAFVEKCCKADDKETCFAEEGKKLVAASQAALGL

B1: FL335 Fab antibody fragment (Fab, V domains shown)
VH: QVQLVQSGGGPVKPGGSLRLSCAASGFMFRAYSMNWVRQAPGKGLEWVSSISSSGRYIHYADSVKGRFTISRDNAKNSLYLQMNSLRAEDTAVYYCARETVMAGKALDYWGQGTLVTVSS
VL: DIVLTQSPGTLSLSPGETATLSCRASQSVGSNLAWYQQKPGQAPRLLIYGASTGATGVPARFSGSRSGTDFTLTITSLQPEDFATYYCQQYYSFLAKTFGQGTQLEIKR
notes: also called FL355 Fab antibody fragment; feline chimeric antibody fragment
Turning to B1, the binding result was “binds”.
